# Reference: patent publication US20110093983A1, “ALGAL GLYCEROL-3 PHOSPHATE ACYLTRANSFERASE” (National Research Council of Canada, priority 2008, published 2011)
# B1: GAT1: yeast (S. cerevisiae) glycerol-3-phosphate acyltransferase gene GAT1 expressed under GAL1 promoter as comparator (protein, listed as Saccharomyces cerevisiae)
# chain: MSAPAADHNAAKPIPHVPQASRRYKNSYNGFVYNIHTWLYDVSVFLFNILFTIFFREIKVRGAYNVPEVGVPTILVCAPHANQFIDPALVMSQTRLLKTSAGKSRSRMPCFVTAESSFKKRFISFFGHAMGGIPVPRIQDNLKPVDENLEIYAPDLKNHPEIIKGRSKNPQTTPVNFTKRFSAKSLLGLPDYLSNAQIKEIPDDETIILSSPFRTSKSKVVELLTNGTNFKYAEKIDNTETFQSVFDHLHTKGCVGIFPEGGSHDRPSLLPIKAGVAIMALGAVAADPTMKVAVVPCGLHYFHRNKFRSRAVLEYGEPIVVDGKYGEMYKDSPRETVSKLLKKITNSLFSVTENAPDYDTLMVIQAARRLYQPVKVRLPLPAIVEINRRLLFGYSKFKDDPRIIHLKKLVYDYNRKLDSVGLKDHQVMQLKTTKLEALRCFVTLIVRLIKFSVFAILSLPGSILFTPIFIICRVYSEKKAKEGLKKSLVKIKGTDLLATWKLIVALILAPILYVTYSILLIILARKQHYCRIWVPSNNAFIQFVYFYALLVFTTYSSLKTGEIGVDLFKSLRPLFVSIVYPGKKIEEIQTTRKNLSLELTAVCNDLGPLVFPDYDKLATEIFSKRDGYDVSSDAESSISRMSVQSRSRSSSIHSIGSLASNALSRVNSRGSLTDIPIFSDAKQGQWKSEGETSEDEDEFDEKNPAIVQTARSSDLNKENSRNTNISSKIASLVRQKREHEKKE
# System: yeast gat1 mutant
# Test: Lipidomic analysis of phospholipids from yeast gat1 transformed with TpGPAT or GAT1, fed EPA or DHA
# Type: cell-based, Saccharomyces cerevisiae
# Settings: tandem mass spectrometer lipidomics
# Source text: FIG. 4 graphically depicts the results of the lipidomic analysis (fatty acid composition) of the lipids from yeast gat1 mutants transformed with either TpGPAT1 or GAT1. Yeast cells expressing TpGPAT or yeast GAT1 were fed with EPA (20:5) or DHA (22:6) upon induction of the genes. Total lipids from the yeast cells were extracted and subjected to lipidomic analysis using a tandem mass spectrometer. The results are presented as the molar ratio of EPA- or DHA-containing phospholipids (PC, PE, PS, PI) in the total phospholipids.
# To further determine the role of TpGPAT in the incorporation of VLGPUFAs into glycerolipids, yeast gat1 strain transformed with TpGPAT or GAT1 under the control of the GAL1 promoter was grown in the presence of EPA (20:5) or DHA (22:6) upon induction of the genes. Phospholipids were extracted and subjected to lipidomic analysis using a tandem mass spectrometer (testing conducted by the Kansas Lipidomics Research Center). […] It was thus concluded that TpGPAT has a role in controlling PUFA accumulation in glycerolipid.
molecule,measurement,setting,value
B1,Molar percentage of DHA in phospholipids,yeast gat1 fed DHA (22:6),0.235%
same,Molar percentage of EPA in phospholipids,yeast gat1 fed EPA (20:5),2.025%
